Assay results taken from publication PMC6779467, “Cytoplasmic protein misfolding titrates Hsp70 to activate nuclear Hsf1” (eLife, 2019).

B1: Hsf1-StrepTag II (natural protein, S. cerevisiae, UniProt P10961 1-833, looked up)
chain: MNNAANTGTTNESNVSDAPRIEPLPSLNDDDIEKILQPNDIFTTDRTDASTTSSTAIEDIINPSLDPQSAASPVPSSSFFHDSRKPSTSTHLVRRGTPLGIYQTNLYGHNSRENTNPNSTLLSSKLLAHPPVPYGQNPDLLQHAVYRAQPSSGTTNAQPRQTTRRYQSHKSRPAFVNKLWSMLNDDSNTKLIQWAEDGKSFIVTNREEFVHQILPKYFKHSNFASFVRQLNMYGWHKVQDVKSGSIQSSSDDKWQFENENFIRGREDLLEKIIRQKGSSNNHNSPSGNGNPANGSNIPLDNAAGSNNSNNNISSSNSFFNNGHLLQGKTLRLMNEANLGDKNDVTAILGELEQIKYNQIAISKDLLRINKDNELLWQENMMARERHRTQQQALEKMFRFLTSIVPHLDPKMIMDGLGDPKVNNEKLNSANNIGLNRDNTGTIDELKSNDSFINDDRNSFTNATTNARNNMSPNNDDNSIDTASTNTTNRKKNIDENIKNNNDIINDIIFNTNLANNLSNYNSNNNAGSPIRPYKQRYLLKNRANSSTSSENPSLTPFDIESNNDRKISEIPFDDEEEEETDFRPFTSRDPNNQTSENTFDPNRFTMLSDDDLKKDSHTNDNKHNESDLFWDNVHRNIDEQDARLQNLENMVHILSPGYPNKSFNNKTSSTNTNSNMESAVNVNSPGFNLQDYLTGESNSPNSVHSVPSNGSGSTPLPMPNDNDTEHASTSVNQGENGSGLTPFLTVDDHTLNDNNTSEGSTRVSPDIKFSATENTKVSDNLPSFNDHSYSTQADTAPENAKKRFVEEIPEPAIVEIQDPTEYNDHRLPKRAKK
notes: Hsf1, S. cerevisiae; HSF1 amplified with primers from the start codon to the last codon before the tag; also called Heat shock factor 1; yeast Hsf1; source: E. coli BL21-SI/pCodonPlus with pCA1026, coexpressed with 6xHis-SUMO-Ssa1 and Sis1; purified (Ni-IDA, Strep-Tactin Sepharose); not shown: Strep Tag II, C-terminal, kept
B2: Ssa1 (6xHis-SUMO tag cleaved with Ulp1) (natural protein)
chain: not shown
notes: Hsp70 Ssa1, S. cerevisiae; Same construct as m2 after cleavage of the tag with Ulp1 SUMO protease; also called Hsp70; Hsp70 Ssa1; source: E. coli BL21-SI/pCodonPlus with pCA1026, coexpressed with Hsf1-StrepTag II and Sis1; purified (Ni-IDA, Ulp1 cleavage, Strep-Tactin Sepharose through Hsf1); not shown: 6xHis-SUMO, N-terminal, cleaved

Experiments:
[1] = molecular target: the molecule itself; assay: SEC; 500 ul of 2 mg/ml purified complex on HiLoad 16/600 Superdex200 pg, 1 mL/min, LWB150
Hsf1-StrepTag II = molecular target: B1; assay: pull-down; coexpression in E. coli; tandem affinity purification: Ni-IDA (6xHis-SUMO on Ssa1), Ulp1 cleavage, Strep-Tactin Sepharose (StrepTag II on Hsf1), elution with desthiobiotin; LWB150 (40 mM HEPES-KOH pH 7.5, 150 mM NaCl, 5 mM MgCl2, 5% glycerol); stoichiometry by densitometry of a Coomassie stained gel; conditions: partners not purified

Binder: B1
- binding result [1]: binds

Binder: B2
- stoichiometry N (Hsf1-StrepTag II): 3 Hsf1 per Ssa1
